Results reported in paper PMC6215091.
Read-outs that look alike come from different tables or passages of the source.

What was measured:
[1] = biological target: NaChBac/F108A (Bacillus halodurans)
[2] = biological target: NaChBac (Bacillus halodurans)
[3] = biological target: NaChBac (Bacillus halodurans); remark: listed apart in the source
NaV1.7 = NaV1.7 (UniProt Q15858)
NaV1.4 = NaV1.4 (UniProt P15390)
NaV1.2 = NaV1.2 (UniProt P04775)
NaV1.5 = NaV1.5 (UniProt Q14524)
NaV1.3 = NaV1.3 (UniProt P08104)
UniProt P08104, sequence (P08104 whole entry): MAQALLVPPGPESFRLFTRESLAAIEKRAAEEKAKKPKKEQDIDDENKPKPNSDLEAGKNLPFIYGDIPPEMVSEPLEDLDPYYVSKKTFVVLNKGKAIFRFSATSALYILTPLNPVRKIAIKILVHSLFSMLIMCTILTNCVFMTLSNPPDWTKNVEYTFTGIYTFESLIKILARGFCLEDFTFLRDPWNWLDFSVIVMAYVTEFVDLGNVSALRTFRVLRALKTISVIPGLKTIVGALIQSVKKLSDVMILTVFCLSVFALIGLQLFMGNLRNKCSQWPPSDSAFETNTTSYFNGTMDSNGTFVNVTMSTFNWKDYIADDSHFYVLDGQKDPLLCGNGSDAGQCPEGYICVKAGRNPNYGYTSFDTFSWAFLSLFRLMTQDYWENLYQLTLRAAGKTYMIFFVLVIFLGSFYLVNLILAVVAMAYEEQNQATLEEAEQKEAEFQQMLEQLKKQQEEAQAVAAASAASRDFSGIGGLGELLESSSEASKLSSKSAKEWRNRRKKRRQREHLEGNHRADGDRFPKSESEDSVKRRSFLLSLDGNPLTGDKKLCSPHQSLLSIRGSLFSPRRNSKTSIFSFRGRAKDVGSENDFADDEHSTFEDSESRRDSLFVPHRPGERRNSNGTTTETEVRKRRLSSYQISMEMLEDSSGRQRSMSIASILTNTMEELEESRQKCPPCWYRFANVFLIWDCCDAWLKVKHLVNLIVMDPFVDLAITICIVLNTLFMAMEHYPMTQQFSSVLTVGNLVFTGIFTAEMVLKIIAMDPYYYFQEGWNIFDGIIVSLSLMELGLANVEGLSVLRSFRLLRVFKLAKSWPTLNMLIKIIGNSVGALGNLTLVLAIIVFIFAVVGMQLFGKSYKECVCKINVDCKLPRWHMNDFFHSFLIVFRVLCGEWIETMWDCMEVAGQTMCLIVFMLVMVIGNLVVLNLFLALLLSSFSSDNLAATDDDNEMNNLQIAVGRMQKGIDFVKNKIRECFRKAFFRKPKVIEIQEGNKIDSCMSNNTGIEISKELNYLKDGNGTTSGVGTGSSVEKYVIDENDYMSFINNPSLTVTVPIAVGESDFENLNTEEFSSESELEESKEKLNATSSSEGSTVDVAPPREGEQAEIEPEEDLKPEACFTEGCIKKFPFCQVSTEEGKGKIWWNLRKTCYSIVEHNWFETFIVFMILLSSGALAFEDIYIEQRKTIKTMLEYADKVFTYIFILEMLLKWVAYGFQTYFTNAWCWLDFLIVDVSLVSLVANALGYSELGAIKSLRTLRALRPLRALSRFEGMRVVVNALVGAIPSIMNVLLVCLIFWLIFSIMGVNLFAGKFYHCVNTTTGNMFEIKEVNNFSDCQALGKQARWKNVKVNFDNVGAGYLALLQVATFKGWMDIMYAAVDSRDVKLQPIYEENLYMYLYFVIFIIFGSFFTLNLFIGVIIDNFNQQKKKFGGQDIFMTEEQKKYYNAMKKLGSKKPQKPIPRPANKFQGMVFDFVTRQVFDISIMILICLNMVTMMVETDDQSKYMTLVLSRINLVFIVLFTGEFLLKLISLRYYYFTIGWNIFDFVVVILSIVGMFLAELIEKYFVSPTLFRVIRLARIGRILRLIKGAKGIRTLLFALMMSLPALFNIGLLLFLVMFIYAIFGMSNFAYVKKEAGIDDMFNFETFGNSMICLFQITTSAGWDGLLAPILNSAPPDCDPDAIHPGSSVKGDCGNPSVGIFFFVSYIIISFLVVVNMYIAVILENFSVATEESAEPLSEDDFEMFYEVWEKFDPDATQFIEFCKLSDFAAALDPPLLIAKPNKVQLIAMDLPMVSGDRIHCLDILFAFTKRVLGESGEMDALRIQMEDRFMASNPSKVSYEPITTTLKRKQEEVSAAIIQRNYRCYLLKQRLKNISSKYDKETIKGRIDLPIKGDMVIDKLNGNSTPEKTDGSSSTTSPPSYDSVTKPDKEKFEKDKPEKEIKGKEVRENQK

NaV1.6 = NaV1.6 (UniProt Q9WTU3)
[4] = biological target: NaChBac Q107A (Bacillus halodurans)
[5] = biological target: NaChBac F103A (Bacillus halodurans)
[6] = biological target: NaChBac/G105A (Bacillus halodurans)
[7] = biological target: NaChBac V109A (Bacillus halodurans)

UniProt Q15858, sequence (Q15858 whole entry): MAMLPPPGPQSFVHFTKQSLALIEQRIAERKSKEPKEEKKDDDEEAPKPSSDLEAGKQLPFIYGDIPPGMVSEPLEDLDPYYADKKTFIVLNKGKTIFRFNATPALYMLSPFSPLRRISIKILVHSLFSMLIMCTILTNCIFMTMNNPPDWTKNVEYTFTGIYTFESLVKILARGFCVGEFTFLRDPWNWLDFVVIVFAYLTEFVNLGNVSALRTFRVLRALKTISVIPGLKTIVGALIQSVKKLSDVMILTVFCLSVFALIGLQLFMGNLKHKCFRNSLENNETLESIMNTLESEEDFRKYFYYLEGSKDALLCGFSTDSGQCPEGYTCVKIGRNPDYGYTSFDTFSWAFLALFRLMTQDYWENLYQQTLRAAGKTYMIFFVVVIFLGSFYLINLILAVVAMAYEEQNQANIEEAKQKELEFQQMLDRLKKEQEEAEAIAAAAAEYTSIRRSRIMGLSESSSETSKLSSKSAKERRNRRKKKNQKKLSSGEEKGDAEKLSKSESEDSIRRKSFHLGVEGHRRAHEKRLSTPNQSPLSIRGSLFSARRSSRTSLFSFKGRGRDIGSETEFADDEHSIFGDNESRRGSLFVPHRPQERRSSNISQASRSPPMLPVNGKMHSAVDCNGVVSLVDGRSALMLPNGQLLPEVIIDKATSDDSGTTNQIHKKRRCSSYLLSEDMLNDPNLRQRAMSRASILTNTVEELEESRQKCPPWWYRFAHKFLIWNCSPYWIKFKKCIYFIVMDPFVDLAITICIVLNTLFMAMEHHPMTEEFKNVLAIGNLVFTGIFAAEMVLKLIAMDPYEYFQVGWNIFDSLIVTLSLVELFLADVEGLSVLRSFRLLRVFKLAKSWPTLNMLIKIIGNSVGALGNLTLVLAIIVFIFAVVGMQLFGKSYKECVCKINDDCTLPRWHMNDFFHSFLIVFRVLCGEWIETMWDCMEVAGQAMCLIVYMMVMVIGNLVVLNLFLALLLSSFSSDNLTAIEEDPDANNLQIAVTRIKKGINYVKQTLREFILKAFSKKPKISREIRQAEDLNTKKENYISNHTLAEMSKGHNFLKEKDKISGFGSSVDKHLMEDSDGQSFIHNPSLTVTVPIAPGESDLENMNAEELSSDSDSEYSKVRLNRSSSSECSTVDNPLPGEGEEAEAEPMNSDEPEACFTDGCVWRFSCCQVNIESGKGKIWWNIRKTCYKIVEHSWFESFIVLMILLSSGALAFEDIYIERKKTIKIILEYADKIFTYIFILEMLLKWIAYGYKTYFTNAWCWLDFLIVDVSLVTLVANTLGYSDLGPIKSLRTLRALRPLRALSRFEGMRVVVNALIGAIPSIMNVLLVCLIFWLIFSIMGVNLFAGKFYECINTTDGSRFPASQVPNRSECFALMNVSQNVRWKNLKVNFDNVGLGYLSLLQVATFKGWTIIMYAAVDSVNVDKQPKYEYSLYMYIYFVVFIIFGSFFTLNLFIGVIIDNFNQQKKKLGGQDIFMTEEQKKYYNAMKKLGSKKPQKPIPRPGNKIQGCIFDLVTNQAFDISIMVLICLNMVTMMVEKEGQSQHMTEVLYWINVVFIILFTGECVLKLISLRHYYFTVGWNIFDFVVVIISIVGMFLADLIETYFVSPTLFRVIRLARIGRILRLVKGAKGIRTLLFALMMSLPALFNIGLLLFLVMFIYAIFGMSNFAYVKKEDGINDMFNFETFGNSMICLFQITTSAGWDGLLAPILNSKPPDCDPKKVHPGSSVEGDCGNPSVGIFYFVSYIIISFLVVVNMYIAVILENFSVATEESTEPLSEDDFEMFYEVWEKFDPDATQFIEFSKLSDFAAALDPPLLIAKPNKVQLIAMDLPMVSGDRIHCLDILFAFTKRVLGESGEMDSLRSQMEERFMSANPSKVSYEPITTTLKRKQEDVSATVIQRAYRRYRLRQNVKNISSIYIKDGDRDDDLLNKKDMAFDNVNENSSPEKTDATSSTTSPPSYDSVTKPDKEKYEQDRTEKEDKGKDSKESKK

Substance | IC50 of inhibition of the current, whole-cell patch clamp, dose–response curve [1] | IC50 of inhibition of the current, whole-cell patch clamp, dose–response curve [2] | IC50 of inhibition of the current, whole-cell patch clamp, dose–response curve [3] | IC50 of inhibition of the peak current, whole-cell patch clamp, dose–response curve (NaV1.7) | IC50 of inhibition of the peak current, whole-cell patch clamp, dose–response curve (NaV1.4) | IC50 of inhibition of the peak current, whole-cell patch clamp, dose–response curve (NaV1.8/1.7L5 channel) | IC50 of inhibition of the peak current, whole-cell patch clamp, dose–response curve (NaV1.2) | IC50 of inhibition of the peak current, whole-cell patch clamp, dose–response curve (NaV1.5) | IC50 of inhibition of the peak current, whole-cell patch clamp, dose–response curve (NaV1.3) | IC50 of inhibition of the peak current, whole-cell patch clamp, dose–response curve (NaV1.6) | IC50 of inhibition of the current, whole-cell patch clamp, dose–response curve [4] | IC50 of inhibition of the current, whole-cell patch clamp, dose–response curve [5] | IC50 of inhibition of the current, whole-cell patch clamp, dose–response curve [6] | IC50 of inhibition of the current, whole-cell patch clamp, dose–response curve [7]
JZTx-27 (peptide) | 117 nM | 46.7 nM | – | – | – | – | – | – | – | – | – | – | – | –
JZTx-14 (from UniProt B1P1C0 30-62) (peptide) | 3470 nM | – | 320 nM | 189 nM | 290 nM | 824 nM | 194 nM | 478 nM | 426 nM | 159 nM | 810 nM | 833 nM | 653 nM | 1370 nM
